Experimental data: article PMC8989322 (2022)

B1: mAb1488 (antibody, V domains shown)
VH: EVHLVESGGGLVKPGGSLRLSCAASGFTFSSYTMNWVRQAPGKGLEWVSSISSSSTYIYYADSVRGRFTISRDNAKNSLYLQMNSLRAEDSAVYYCARRAGGFDAYYFDYWGQGTLVTVSS
VL: not shown
B2: mAb352 (antibody, V domains shown)
VH: EVQLVESGGGLVKPGGSLRLSCAASGFSFSEYRMNWVRQAPGKGLEWVSFISSSGTYIDYADSVKGRFTISRDNVNNSLYLQMNNLRAGDTAVYYCARGMGIAVRRFDYWGQGTLVSVSS
VL: SYVLTQPPSVSVAPGQTAKITCGGNNIGSESVHWYQQKPGQAPVLVVYDDAVRPSGIPERFSGSNSRNTATLTISRVEAGDEAAYYCQVWDSSTVASFGGGTKLTVL
B3: mAb234 (antibody, V domains shown)
VH: EVQLVESGGGLVKPGGSLRLSCAASGFNFSTHIMNWVRQAPGKGLEWVSSISSSGTYIYYADSMKGRFTISRDNPKNSLYLQMNSLRAEDTAVYYCARARGFIQFHYYMDVWGKGTTVAVSS
VL: SYVLTQPPSVSVAPGKTARITCGGNNIGSKSVHWHQQRPGQAPVLVVYDDKIRPSGIPERFSGSNSGNTATLIISRVEAGDEADYYCQVWHSSSDPVVFGGGTKLTVL
B4: mAb1512 (antibody, V domains shown)
VH: KVQLVQSGGGVVQPGRSQRLSCAASGLTLSEYAMHWVRQAPGKGLEWVAVILSDGTKKEYADSVKGRFTISRDNSKNTLYLQMNSLRAEDTAVYYCATDDNILGHCRSKSCQRNYYHGMDVWGQGTTVSVSS
VL: DIVMTQSPLSLPVTPGEPASISCRSSQSLLHSNGKNYLDWYLQKPGQSPQLLIYLGSDRASGVPDRFSGSGSGTDFTLSISRVEAEDVGVYYCMQALQTPFTFGPGTKVDIK
B5: mAb236 (antibody, V domains shown)
VH: EVQLVESGGGLVQPGGSLRLSCVASGFNFTTYSMNWVRQAPGKGLEWVSYISSHSNLIYYATSVKGRFTISRDNAKNSLYLQMNSLRAEDTALYYCARGGSLHPSAGADWIDPWGQGTLVTVSS
VL: SYELTQAPSVSVSPGQTATITCSGDKLGDKFTSWYQQKPGQSPVLVIYQDSKRPSGIPERFSASNSGNTATLTISGTRAMDEADYYCQAWDSNTYVFGTGTRVAVL

What follows are binders tested against reference 3D7 ctCSP peptide (P. falciparum 3D7) (assay: SPR).

Question: B1 was tested. Which Kd did it give?
Answer: The Kd was 0.36 nM.

Question: For B2, which Kd is on record?
Answer: The Kd was 0.0116 nM.

Question: How did the Kd turn out when B3 was run?
Answer: Its Kd is 0.00377 nM.

Question: For B4, which Kd is on record?
Answer: The Kd was 0.0291 nM.

Question: How did the Kd turn out when B5 was run?
Answer: The Kd was 0.00278 nM.
